Measurements taken from article PMC9475456, “DDX56 transcriptionally activates MIST1 to facilitate tumorigenesis of HCC through PTEN-AKT signaling”.

Molecular target: T1, DDX56 (His-DDX56) (human, UniProt Q9NY93 1-547)
T1 sequence: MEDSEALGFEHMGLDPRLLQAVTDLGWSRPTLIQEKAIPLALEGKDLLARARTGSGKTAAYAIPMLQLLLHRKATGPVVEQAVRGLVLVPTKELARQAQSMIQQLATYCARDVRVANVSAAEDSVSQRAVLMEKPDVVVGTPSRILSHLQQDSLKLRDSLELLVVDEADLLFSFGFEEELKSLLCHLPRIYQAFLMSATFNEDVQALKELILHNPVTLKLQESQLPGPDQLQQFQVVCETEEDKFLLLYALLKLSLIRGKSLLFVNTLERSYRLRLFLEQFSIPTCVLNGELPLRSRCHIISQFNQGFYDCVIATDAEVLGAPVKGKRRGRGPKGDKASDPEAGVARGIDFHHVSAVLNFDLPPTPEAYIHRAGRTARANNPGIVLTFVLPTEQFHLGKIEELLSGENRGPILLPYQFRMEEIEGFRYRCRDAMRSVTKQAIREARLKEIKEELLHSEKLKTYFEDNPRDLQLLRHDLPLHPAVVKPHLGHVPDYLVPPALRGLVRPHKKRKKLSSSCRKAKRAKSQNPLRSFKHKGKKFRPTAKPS
Experiment: EMSA; 5 mM Mg2+; poly(dI-dC); supershifted by DDX56 antibody; LightShift EMSA kit, 20 uL: 2 uL 10x binding buffer, 1 uL 50% glycerol, 1 uL 100 mM MgCl2, 1 ug/uL poly(dI-dC), 1 uL 1% NP-40, 2 ug protein; supershift at room
Details: protein: commercial; tags: N-terminal His; label: 5' biotin; blunt

B1: MIST1 promoter -160 to -117 (dsDNA)
DNA 1: GCCACCTGGTCCGGGAGCCCCAGGCGCCGGCCTCCCGCCCGCCC
DNA 2: GGGCGGGCGGGAGGCCGGCGCCTGGGGCTCCCGGACCAGGTGGC
B1: binds.
